The record followed here is PMC9718841.

Assay [1] has as its target recombinant human CALM2 protein (human) (UniProt P0DP24). Description: MST; CaCl2.
Assay [2] has the same target. Description: MST; labelled CALM2 at 500 nM, peptide in 16-point serial dilution, 25 °C; in the absence (1 mM EDTA, Apo-CALM2) and presence of Ca2+.

peptide TLIQ2, sequence (O00206 whole entry, looked up, tested part not stated): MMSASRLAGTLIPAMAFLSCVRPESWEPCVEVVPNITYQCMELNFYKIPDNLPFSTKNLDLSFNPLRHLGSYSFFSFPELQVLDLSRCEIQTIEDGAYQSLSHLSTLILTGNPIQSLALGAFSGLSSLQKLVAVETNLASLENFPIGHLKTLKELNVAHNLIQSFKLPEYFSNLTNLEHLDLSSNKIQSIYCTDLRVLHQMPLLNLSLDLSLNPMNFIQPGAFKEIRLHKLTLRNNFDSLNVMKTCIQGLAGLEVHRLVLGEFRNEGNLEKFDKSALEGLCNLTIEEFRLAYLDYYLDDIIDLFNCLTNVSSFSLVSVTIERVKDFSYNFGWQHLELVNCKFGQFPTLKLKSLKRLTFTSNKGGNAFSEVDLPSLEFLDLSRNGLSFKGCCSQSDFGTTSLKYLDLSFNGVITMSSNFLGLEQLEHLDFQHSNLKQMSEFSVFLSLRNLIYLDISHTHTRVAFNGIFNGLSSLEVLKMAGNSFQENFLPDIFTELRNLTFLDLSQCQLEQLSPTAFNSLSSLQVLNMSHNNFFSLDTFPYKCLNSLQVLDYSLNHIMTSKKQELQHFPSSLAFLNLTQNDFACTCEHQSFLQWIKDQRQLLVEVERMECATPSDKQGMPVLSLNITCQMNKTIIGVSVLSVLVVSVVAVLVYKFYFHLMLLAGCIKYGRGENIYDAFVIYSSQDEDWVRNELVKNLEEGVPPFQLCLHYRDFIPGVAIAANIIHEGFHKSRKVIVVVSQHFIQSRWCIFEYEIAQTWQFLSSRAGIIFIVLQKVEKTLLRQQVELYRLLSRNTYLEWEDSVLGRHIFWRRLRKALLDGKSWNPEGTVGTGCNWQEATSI

peptide TLIQ2 (from UniProt O00206): the Kd (as a rule, the free concentration of one partner at which half of the binding sites on the other are occupied at equilibrium, for simple one-to-one binding) in assay [1] was 9.03 µM.

As for peptide TLIQ2, the Kd in assay [2] was found to be 6.69 µM.
